Target: winged-helix domain 32C of human RPA (residues 172-270 of RPA2) (human, UniProt P15927 172-270)
Assay: NMR titration

Sequence of winged-helix domain 32C of human RPA (residues 172-270 of RPA2) (P15927 172-270): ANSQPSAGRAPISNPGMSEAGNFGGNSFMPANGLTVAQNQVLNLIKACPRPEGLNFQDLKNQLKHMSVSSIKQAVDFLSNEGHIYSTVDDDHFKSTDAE

binding result: binds
B1: harmonin homology domain 2 (HHD2) of human RTEL1, residues 1056-1140 (domain or fragment)
chain: GQHAVSAYLADARRALGSAGCSQLLAALTAYKQDDDLDKVLAVLAALTTAKPEDFPLLHRFSMFVRPHHKQRFSQTCTDLTGRPY

— publication doi:10.1101/2022.08.08.503141 (bioRxiv, 2022)
